The Human Domainome abundance scans (Beltran et al. 2025)
± gives the uncertainty stated by the source.

B1: Friend leukemia integration 1 transcription factor, residues 116 to 197; numbered along this chain, Q01543 (parent)
chain: NMTTNERRVIVPADPTLWTQEHVRQWLEWAIKEYSLMEIDTSFFQNMDGKELCKMNKEDFLRATTLYNTEVLLSHLSYLRES
B2: Transcription factor SOX-4, residues 60 to 127; numbered along this chain, Q06945 (parent)
chain: KRPMNAFMVWSQIERRKIMEQSPDMHNAEISKRLGKRWKLLKDSDKIPFIREAERLRLKHMADYPDYK

Variants of: B1
Test: abundance fitness (aPCA) (normalised: wild type 0, dead -1); higher = more abundant; growth selection in yeast, the domain comes from the species named
Conditions: Homo sapiens

Variant	abundance fitness
L79F	-0.657 ± 0.47
A63D	0.012 ± 0.32
A63H	-0.161 ± 0.12
A63W	0.002 ± 0.077
A63R	-0.041 ± 0.048
A63G	0.018 ± 0.052
A63N	0.36 ± 0.23
A63K	-0.089 ± 0.1
A63E	-0.213 ± 0.087
A63F	-0.123 ± 0.16
A63M	0.024 ± 0.079
A63V	0.003 ± 0.062
A63P	-0.954 ± 0.15
A63L	0.022 ± 0.055
A63T	-0.106 ± 0.083
A63Y	0.085 ± 0.19
E81D	-0.092 ± 0.23
R62T	-0.117 ± 0.11
R62Q	0.071 ± 0.1
R62P	-0.213 ± 0.09
R62V	0.066 ± 0.072
R62W	-0.325 ± 0.12
R62S	0.017 ± 0.059
E70M	-0.239 ± 0.11

Variant	abundance fitness
E70C	-0.448 ± 0.14
E70N	-0.124 ± 0.28
E70A	-0.598 ± 0.12
E70K	-0.167 ± 0.12
E70H	-0.001 ± 0.17
E70P	-0.859 ± 0.28
E70D	0.092 ± 0.12
E70W	-0.944 ± 0.21
E70R	-0.335 ± 0.066
E70L	-0.507 ± 0.079
E70V	-0.363 ± 0.089
E70S	-0.107 ± 0.071
E70I	-0.726 ± 0.46
E70T	-0.213 ± 0.081
E70Q	-0.078 ± 0.11
L72R	-1.12 ± 0.29
L72V	-0.6 ± 0.097
L72K	-1 ± 0.22
L72C	-0.372 ± 0.16
L72M	-0.099 ± 0.085
L72T	-0.814 ± 0.16
L72G	-1.01 ± 0.22
L72I	0.063 ± 0.33
L72W	-1.1 ± 0.27

Variant	abundance fitness
L72P	-0.78 ± 0.22
L72A	-0.463 ± 0.13
L72F	-0.231 ± 0.12
L72Q	-0.949 ± 0.2
T69Y	-0.295 ± 0.2
T69L	-0.561 ± 0.094
T69S	-0.028 ± 0.06
T69A	0.084 ± 0.11
T69K	-0.816 ± 0.32
T69C	-0.214 ± 0.12
T69F	-0.799 ± 0.29
T69G	-0.184 ± 0.079
T69Q	-0.744 ± 0.18
T69E	-0.673 ± 0.19
T69M	-0.444 ± 0.086
T65D	-0.162 ± 0.14
T65G	-0.058 ± 0.058
T65H	-0.283 ± 0.26
T65I	-0.908 ± 0.29
T65P	-0.085 ± 0.11
T65W	-1.03 ± 0.23
T65Q	-0.235 ± 0.091
T65S	-0.011 ± 0.067
T65V	-0.966 ± 0.14

Variant	abundance fitness
T65L	-0.615 ± 0.12
T65K	-0.47 ± 0.13
T65A	-0.424 ± 0.11
T65F	-1.09 ± 0.37
T65C	-0.028 ± 0.12
T65N	-0.042 ± 0.17
T65R	-0.372 ± 0.069
S77P	-0.216 ± 0.23
S77T	0.032 ± 0.33
Y67V	0.064 ± 0.078
Y67E	0.212 ± 0.08
Y67M	-0.111 ± 0.083
Y67S	0.074 ± 0.072
Y67C	-0.058 ± 0.12
Y67P	-0.008 ± 0.11
Y67D	-0.027 ± 0.13
Y67G	0.017 ± 0.1
Y67T	-0.006 ± 0.047
Y67K	-0.045 ± 0.11
Y67R	0.079 ± 0.061
Y67A	-0.051 ± 0.087
Y67Q	0.059 ± 0.092
Y67F	-0.219 ± 0.15
Y67W	-0.153 ± 0.092

Variant	abundance fitness
Y67H	0.085 ± 0.21
Y67N	-0.014 ± 0.23
Y67L	-0.125 ± 0.057
R80S	0.103 ± 0.37
V71G	-0.677 ± 0.13
V71W	-0.047 ± 0.079
V71S	-0.147 ± 0.066
V71F	-0.215 ± 0.13
V71T	-0.145 ± 0.12
V71C	0.094 ± 0.16
V71E	-0.368 ± 0.18
V71I	0.263 ± 0.17
V71P	-0.401 ± 0.12
V71R	0.02 ± 0.062
V71N	-0.391 ± 0.23
V71M	-0.065 ± 0.09
V71Y	-0.239 ± 0.29
V71Q	-0.035 ± 0.07
V71A	-0.006 ± 0.086
V71L	-0.093 ± 0.052
V71K	0.051 ± 0.14
L73E	-0.343 ± 0.11
L73V	-0.085 ± 0.074
L73H	-0.173 ± 0.19

Variant	abundance fitness
L73K	-0.199 ± 0.083
L73N	-0.631 ± 0.25
L73M	-0.061 ± 0.12
L73I	-0.21 ± 0.14
L73W	0.039 ± 0.076
L73R	-0.144 ± 0.073
L73T	-0.044 ± 0.086
L73A	-0.133 ± 0.11
L73G	-0.27 ± 0.084
L73C	-0.057 ± 0.11
L73F	-0.1 ± 0.1
L73Y	-0.281 ± 0.26
L73P	-0.854 ± 0.2
H75Y	-0.201 ± 0.33
S82P	-0.125 ± 0.46
S82F	-0.112 ± 0.27
N68Y	-0.797 ± 0.29
N68T	-0.146 ± 0.078
N68R	-0.547 ± 0.081
N68V	-0.376 ± 0.076
N68W	-0.911 ± 0.16
N68F	-1.02 ± 0.42
N68G	-0.125 ± 0.074
N68Q	-0.167 ± 0.089

Variant	abundance fitness
N68L	-0.859 ± 0.12
N68K	-0.898 ± 0.32
N68A	-0.233 ± 0.083
N68D	0.156 ± 0.25
N68C	-0.292 ± 0.11
N68S	-0.083 ± 0.064
N68E	-0.022 ± 0.094
S74R	0.042 ± 0.13
S74A	0.029 ± 0.1
S74Y	0.134 ± 0.27
S74M	-0.049 ± 0.11
S74H	-0.066 ± 0.18
S74Q	-0.405 ± 0.25
S74E	0.271 ± 0.16
S74T	-0.076 ± 0.12
S74C	-0.101 ± 0.17
S74L	-0.28 ± 0.047
S74D	0.014 ± 0.35
S74G	0.026 ± 0.12
S74K	0.133 ± 0.12
S74F	-0.404 ± 0.19
S74V	-0.567 ± 0.14
S74P	-0.417 ± 0.11
S74W	-0.561 ± 0.15

Variant	abundance fitness
Y78V	0.124 ± 0.22
L66S	0.013 ± 0.074
L66W	0.009 ± 0.087
L66T	-0.089 ± 0.14
L66F	-0.574 ± 0.32
L66V	0.045 ± 0.067
L66Q	-0.066 ± 0.12
L66G	-0.108 ± 0.068
L66P	-0.015 ± 0.11
L66E	0.016 ± 0.095
L66I	0.085 ± 0.12
L66H	0.008 ± 0.11
L66A	-0.021 ± 0.049
L66K	-0.038 ± 0.13
L66Y	-0.036 ± 0.11
L66C	-0.039 ± 0.12
T64K	-0.796 ± 0.27
T64S	-0.613 ± 0.16
T64G	-0.126 ± 0.14
T64Q	-0.1 ± 0.083
T64M	-0.02 ± 0.15
T64C	-0.505 ± 0.27
T64R	-0.807 ± 0.075
T64W	-0.537 ± 0.15

Variant	abundance fitness
T64E	-0.792 ± 0.34
T64N	-0.531 ± 0.28
T64L	-0.262 ± 0.11
T64A	-0.404 ± 0.12
T64I	-0.793 ± 0.46
T64P	-0.704 ± 0.18
L76I	-0.391 ± 0.34
L76T	-0.916 ± 0.33
L76H	-0.841 ± 0.35
L76M	-0.218 ± 0.12
L76S	-0.553 ± 0.17
L76Q	-0.879 ± 0.23
L76G	-0.28 ± 0.25
L76P	-0.7 ± 0.27
L76V	-0.432 ± 0.13
L76F	-0.555 ± 0.29
L76N	-0.799 ± 0.46
L76E	-0.794 ± 0.32
L76R	-0.723 ± 0.26

Variants of: B2
Test: as above
Conditions: Homo sapiens

Variant	abundance fitness
Y64L	0.009 ± 0.046
D24T	-0.206 ± 0.068
D24A	-0.239 ± 0.06
P48D	-0.469 ± 0.077
R57P	-0.236 ± 0.093
W38P	-0.739 ± 0.13
W38D	-0.67 ± 0.091
W38R	-1.16 ± 0.12
W38Q	-1.02 ± 0.24
R15I	-0.25 ± 0.057
Q12W	-0.662 ± 0.1
Q12S	-0.134 ± 0.06
D45V	-0.414 ± 0.082
K1A	-0.193 ± 0.098
I13M	-0.228 ± 0.069
I13K	-0.195 ± 0.11
I13F	-0.21 ± 0.18
I18W	-0.787 ± 0.082
I18Y	-0.285 ± 0.21
I18Q	-0.948 ± 0.3
I18C	-0.278 ± 0.45
K46A	-0.937 ± 0.13
K46P	-0.933 ± 0.2
A62C	-0.15 ± 0.049
A62I	-0.163 ± 0.064

Variant	abundance fitness
A62Y	-0.104 ± 0.052
A62S	-0.021 ± 0.037
A62L	-0.175 ± 0.042
S31H	-0.19 ± 0.07
M25V	-0.125 ± 0.065
D43G	-0.27 ± 0.046
E20R	-0.364 ± 0.083
E20P	-0.524 ± 0.12
E20C	-0.478 ± 0.19
E20T	-0.296 ± 0.073
E20G	-0.343 ± 0.11
E20S	-0.497 ± 0.12
M4T	-0.077 ± 0.065
L56T	-0.272 ± 0.09
L40H	-0.153 ± 0.14
H26T	0.154 ± 0.058
W10F	-0.155 ± 0.12
W10S	-0.893 ± 0.14
H60A	-0.055 ± 0.045
A53W	-1.19 ± 0.19
A53F	-0.841 ± 0.27
A53H	-0.42 ± 0.17
M61V	-0.073 ± 0.072
R2P	-0.519 ± 0.16
R2A	-0.08 ± 0.093

Variant	abundance fitness
R2Q	-0.039 ± 0.088
V9T	-0.38 ± 0.2
V9L	0.037 ± 0.046
I30S	-0.858 ± 0.071
I30Q	-0.7 ± 0.078
S44C	-0.472 ± 0.13
S44M	-0.243 ± 0.1
S44D	-0.217 ± 0.14
S44R	-0.264 ± 0.066
N27G	-0.103 ± 0.033
N27L	-0.162 ± 0.038
N27A	0.004 ± 0.055
E52L	-0.3 ± 0.062
E52N	-0.893 ± 0.19
L34T	-0.957 ± 0.15
N5K	-0.553 ± 0.11
N5L	-0.589 ± 0.095
P23M	-0.817 ± 0.077
K42W	-0.786 ± 0.13
K42V	-0.372 ± 0.074
K42G	-0.264 ± 0.075
E54I	-0.701 ± 0.067
L58F	-0.084 ± 0.039
K59V	-0.086 ± 0.038
M19K	0.007 ± 0.048

Variant	abundance fitness
M19I	0.014 ± 0.045
M19F	-0.257 ± 0.054
I47D	-0.128 ± 0.054
A6R	-0.713 ± 0.054
A6H	-1.12 ± 0.36
K17G	-0.783 ± 0.075
K17D	-0.459 ± 0.12
K17A	-0.765 ± 0.21
K17M	-0.401 ± 0.13
G35W	0.142 ± 0.058
G35I	0.156 ± 0.042
G35N	0.015 ± 0.056
R37V	-0.2 ± 0.06
L41W	-0.946 ± 0.14
L41G	-0.941 ± 0.16
L41E	-0.849 ± 0.16
L41F	-0.684 ± 0.2
R33V	0.339 ± 0.074
R33D	0.483 ± 0.36
R33N	0.126 ± 0.1
K68V	-0.43 ± 0.34
D66A	-0.186 ± 0.066
R55C	-0.292 ± 0.056
R55A	-0.103 ± 0.053
F49H	-0.131 ± 0.31

Variant	abundance fitness
F49L	-0.598 ± 0.065
F49A	-0.533 ± 0.084
E29Q	-0.367 ± 0.068
E29S	-0.539 ± 0.094
Q21K	-0.204 ± 0.088
A28Q	-0.145 ± 0.076
A28S	-0.029 ± 0.052
R16G	-0.254 ± 0.04
S22W	0.016 ± 0.053
S22A	-0.074 ± 0.082
S22P	-0.745 ± 0.18
S22L	-0.458 ± 0.057
M8K	-0.205 ± 0.054
M8L	-0.084 ± 0.043
S11R	-0.63 ± 0.058
S11C	-0.206 ± 0.047
S11Y	-0.29 ± 0.048
P3F	-0.186 ± 0.056
P3G	-0.166 ± 0.036
P65D	0.103 ± 0.18
P65A	-0.267 ± 0.083
Y67P	-0.057 ± 0.088
Y67G	0.119 ± 0.081
